According to patent publication US20030148958A1 (PROCTER AND GAMBLE, published 2003):
Changes are numbered by the printed parent chain. Ends that are not written are not given here.

T1: CRF2R
T1 sequence (Q13324 whole entry, species assumed, looked up): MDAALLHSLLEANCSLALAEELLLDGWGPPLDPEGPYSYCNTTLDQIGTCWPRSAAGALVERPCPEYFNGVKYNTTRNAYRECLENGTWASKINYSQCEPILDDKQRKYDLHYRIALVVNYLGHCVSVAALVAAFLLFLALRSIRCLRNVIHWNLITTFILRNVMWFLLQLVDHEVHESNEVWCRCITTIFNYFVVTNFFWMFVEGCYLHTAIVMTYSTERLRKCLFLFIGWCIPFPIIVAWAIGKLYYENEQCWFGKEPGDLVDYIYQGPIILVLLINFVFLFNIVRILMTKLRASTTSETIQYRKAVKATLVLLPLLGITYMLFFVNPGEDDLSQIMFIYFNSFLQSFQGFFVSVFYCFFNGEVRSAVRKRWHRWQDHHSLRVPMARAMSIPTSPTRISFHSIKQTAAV

B1: SEQ ID NO 214 (peptide)
peptide: IVLSLDVVIGLLQILLEQARARAAREQATTNARILARV-NH2
B2: SEQ ID NO 386 (peptide)
peptide: DNPSLSIDVPFFLLRTLLELEKTQSQRERAEQNARIFARV-NH2
B3: SEQ ID NO 385 (peptide)
peptide: DNPSLSIDVPLFLLRTLLELEKTQSQRERAEQNARIFARV-NH2
B4: SEQ ID NO 384 (peptide)
peptide: DNPSLSIDVPLLLLRTLLELEKTQSQRERAEQNARIFARV-NH2
B5: SEQ ID NO 212 (peptide)
peptide: ZGPPISIDLPHQLLRKMIEIEKQEKEKQQAANNRLLLDTI
modifications: C-terminal amide
B6: SEQ ID NO 218 (peptide)
peptide: B5 peptide with H11L, Q12W
modifications: C-terminal amide
B7: SEQ ID NO 217 (peptide)
peptide: B5 peptide with H11F, Q12W
modifications: C-terminal amide
B8: SEQ ID NO 222 (peptide)
peptide: B5 peptide with H11A, Q12F
modifications: C-terminal amide
B9: SEQ ID NO 219 (peptide)
peptide: B5 peptide with Q12F
modifications: C-terminal amide
B10: SEQ ID NO 220 (peptide)
peptide: B5 peptide with H11Y, Q12F
modifications: C-terminal amide
B11: SEQ ID NO 221 (peptide)
peptide: B5 peptide with H11Q, Q12F
modifications: C-terminal amide
B12: SEQ ID NO 215 (peptide)
peptide: B5 peptide with H11Y, Q12W
modifications: C-terminal amide
B13: SEQ ID NO 223 (peptide)
peptide: B5 peptide with H11F, Q12F
modifications: C-terminal amide
B14: SEQ ID NO 213 (peptide)
peptide: B5 peptide with H11Q, Q12W
modifications: C-terminal amide
B15: SEQ ID NO 216 (peptide)
peptide: B5 peptide with H11W, Q12W
modifications: C-terminal amide
B16: SEQ ID NO 387 (peptide)
peptide: DNPSLSIDVPLYLLRTLLELEKTQSQRERAEQNARIFARV-NH2

Each binder was assayed against CRF1R (assay: cell-based or functional assay).
Throughout, for CRF1R Emax %: reference of the scale not given here.
Throughout, for CRF2R Emax %: reference of the scale not given here.

| CRF1R EC50 [nM] | CRF1R Emax % [%] | Binder |
| --- | --- | --- |
| 100 | 4 | B1 |
| 1000 | 78.2 | B2 |
| 1000 | 46 | B3 |
| 1000 | 70.3 | B4 |
| 445 | 100 | B5 |
| 98.4 | 100 | B6 |
| 94.7 | 100 | B7 |
| 384 | 95 | B8 |
| 80.9 | 100 | B9 |
| 63.6 | 81 | B10 |
| 236 | 100 | B11 |
| 188 | 100 | B12 |
| 48.1 | 81 | B13 |
| 1000 | 76 | B14 |
| 49.8 | 98 | B15 |
| 1000 | 50.1 | B16 |

The binders below were run against T1, CRF2R (assay: cell-based or functional assay).

| CRF2R EC50 [nM] | CRF2R Emax % [%] | Binder |
| --- | --- | --- |
| 74.3 | 60 | B1 |
| 8.7 | 96 | B2 |
| 10.2 | 100 | B3 |
| 7.1 | 97.3 | B4 |
| 21.3 | 100 | B5 |
| 4.8 | 96 | B6 |
| 4.7 | 95 | B7 |
| 9.4 | 100 | B8 |
| 7.8 | 98 | B9 |
| 4.1 | 98 | B10 |
| 8.5 | 100 | B11 |
| 4 | 100 | B12 |
| 3 | 92 | B13 |
| 22.3 | 99 | B14 |
| 9.9 | 90 | B15 |
| 17.9 | 100 | B16 |
